Laboratory results from patent publication US8236527B2, “Recombinant production of authentic human proteins using human cell expression systems” (Humanzyme Limited, priority 2008, dated 2012).

Legend:
Assay type in all cases: cell-based
[1] = system: human CD4+ T cells; assay: IL-23 activity: IL-17 secretion from human CD4+ T cells (ELISA)
Description: (A) IL-23 activities determined by the dose-dependent secretion of IL-17 from mouse splenocytes activated with 10 ng/ml PMA. (B) IL-23 activities determined by the dose-dependent secretion of IL-17 from human CD4+ T cells stimulated with […] plate bound anti-CD3 and […] soluble anti-CD28 in the presence of Th17 polarizing cytokines.
FIG. 22: Efficient differentiation of Th17 cells with authentic cytokines expressed in human cells. Whole CD4+ T cells isolated from a healthy donor were stimulated with 2 μg/mL plate bound anti-CD3 and 1 μg/mL soluble anti-CD28 in the presence of Th17 polarizing cytokines, including a titration of IL-23. After 5 days, supernatants were harvested for measurement of IL-17 by ELISA. See (A)-(G). FIG. 22 (H) depicts flow cytometry analysis on Human Th17 Differentiation by Authentic human TGF-β1. See Example 17 below.
IL-17-producing CD4+ T cells (Th17 cells) have been identified as a unique subset of T helper cells that develop along a pathway that is distinct from the Th1 and Th2-cell differentiation pathways. This finding has provided exciting new insights into immunoregulation, host defense and the pathogenesis of autoimmune diseases. Recently it has been shown that TGF-β1, […], IL-6 and IL-23 are important in driving human Th17 differentiation (Chen & O'Shea (2008) Cytokines 41:71). […] The activities were further assayed with human CD4+ cells which were isolated from a healthy donor and stimulated with 10 μg/ml plate bound anti-CD3 and 10 μg/ml soluble anti-CD28 in the presence of Th17 polarizing cytokines. After 5 days supernatants were harvested for measurement of IL-17 by ELISA.

[2] = system: whole CD4+ cells from a healthy donor; assay: Th17 polarizing cytokines: IL-17 secretion from human CD4+ cells (ELISA); settings: compared with cytokines from insect cell or bacterial expression system, 5 days
Excerpt: IL-17-producing CD4+ T cells (Th-17 cells) have been identified as a unique subset of Th cells that develop along a pathway that is distinct from the Th1, and Th2-cell differentiation pathways. This finding has provided exciting new insights into immunoregulation, host defense and the pathogenesis of autoimmune diseases. Recently it has been shown that IL1β, IL6 and IL23 are important in driving human Th17 differentiation. However, TGF-β1, which is important for the differentiation of murine Th17 cells, is reported to be not required, and even inhibits human Th17 differentiation (McGeachy & Cua (2008) Immunity 28:445, Chen & O'Shea (2008) Cytokines 41:71). In this study, whole […] cells isolated from a healthy donor were stimulated with 10 μg/mL plate bound anti-CD3 and 10 μg/ml soluble anti-CD28 in the presence of Th17 polarizing cytokines from the inventive human cell expression system and from an insect cell or bacterial expression system. After 5 days supernatants were harvested for measurement of IL-17 by ELISA.

[3] = system: mouse splenocytes; assay: IL-23 activity: dose-dependent secretion of IL-17 from mouse splenocytes activated with PMA; settings: 10 ng/ml PMA

B1: authentic human IL-23: IL-23 from engineered human HEK293 cells, disulfide-linked heterodimer of 55 kD (protein, UniProt Q9NPF7 20-189; P29460 23-328, looked up)
Interleukin-23 subunit alpha: RAVPGGSSPAWTQCQQLSQKLCTLAWSAHPLVGHMDLREEGDEETTNDVPHIQCGDGCDPQGLRDNSQFCLQRIHQGLIFYEKLLGSDIFTGEPSLLPDSPVGQLHASLLGLSQLLQPEGHHWETQQIPSLSPSQPWQRLLLRFKILRSLQAFVAVAARVFAHGAATLSP
Interleukin-12 subunit beta: IWELKKDVYVVELDWYPDAPGEMVVLTCDTPEEDGITWTLDQSSEVLGSGKTLTIQVKEFGDAGQYTCHKGGEVLSHSLLLLHKKEDGIWSTDILKDQKEPKNKTFLRCEAKNYSGRFTCWWLTTISTDLTFSVKSSRGSSDPQGVTCGAATLSAERVRGDNKEYEYSVECQEDSACPAAEESLPIEVMVDAVHKLKYENYTSSFFIRDIIKPDPPKNLQLKPLKNSRQVEVSWEYPDTWSTPHSYFSLTFCVQVQGKSKREKKDRVFTDKTSATVICRKNASISVRAQDRYYSSSWSEWASVPCS
fold more potent than the cytokine produced from insect cells (FIG. 21 heading) ([1]; assay not specified in the heading): 500 fold
concentration at which maximum induction of IL-17 secretion was achieved ([1]; human CD4+ cells, 5 days): 0.1 ng/mL
fold more potent for inducing IL-17 secretion than insect cell IL-23 ([1]; human CD4+ cells, anti-CD3 and anti-CD28, Th17 polarizing cytokines, 5 days): 100 fold
induction of IL-17 secretion [2]: significantly more effective
activity relative to insect cell IL-23, IL-17 secretion from mouse splenocytes [3]: ten fold more active
